Data taken from US20210388081A1 (Memorial Sloan Kettering, published 2021).

What was measured:
[1] = target: T1, FcRL1, overexpressed on 3T3 cells (UniProt Q96LA6 17-429, limits assumed); experiment: phage clone on 3T3-FcRL1 cells
T1 construct: whole, on cells
T1 sequence (looked up): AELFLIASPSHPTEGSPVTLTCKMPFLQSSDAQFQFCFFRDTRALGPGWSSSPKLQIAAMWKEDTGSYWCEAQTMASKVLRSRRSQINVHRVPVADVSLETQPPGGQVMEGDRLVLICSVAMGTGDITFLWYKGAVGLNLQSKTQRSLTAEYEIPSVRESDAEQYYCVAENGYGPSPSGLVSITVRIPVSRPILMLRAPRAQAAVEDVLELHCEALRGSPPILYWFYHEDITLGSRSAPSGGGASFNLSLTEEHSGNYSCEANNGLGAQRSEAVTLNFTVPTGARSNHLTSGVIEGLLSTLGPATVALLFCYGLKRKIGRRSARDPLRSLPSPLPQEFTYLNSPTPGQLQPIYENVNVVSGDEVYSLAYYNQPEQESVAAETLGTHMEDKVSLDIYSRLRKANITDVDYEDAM

[2] = target: T2, FcRL3, overexpressed on 3T3 cells (UniProt Q96P31 18-734, limits assumed); experiment: phage clone on 3T3-FcRL3 cells
T2 construct: whole, on cells
T2 sequence (looked up): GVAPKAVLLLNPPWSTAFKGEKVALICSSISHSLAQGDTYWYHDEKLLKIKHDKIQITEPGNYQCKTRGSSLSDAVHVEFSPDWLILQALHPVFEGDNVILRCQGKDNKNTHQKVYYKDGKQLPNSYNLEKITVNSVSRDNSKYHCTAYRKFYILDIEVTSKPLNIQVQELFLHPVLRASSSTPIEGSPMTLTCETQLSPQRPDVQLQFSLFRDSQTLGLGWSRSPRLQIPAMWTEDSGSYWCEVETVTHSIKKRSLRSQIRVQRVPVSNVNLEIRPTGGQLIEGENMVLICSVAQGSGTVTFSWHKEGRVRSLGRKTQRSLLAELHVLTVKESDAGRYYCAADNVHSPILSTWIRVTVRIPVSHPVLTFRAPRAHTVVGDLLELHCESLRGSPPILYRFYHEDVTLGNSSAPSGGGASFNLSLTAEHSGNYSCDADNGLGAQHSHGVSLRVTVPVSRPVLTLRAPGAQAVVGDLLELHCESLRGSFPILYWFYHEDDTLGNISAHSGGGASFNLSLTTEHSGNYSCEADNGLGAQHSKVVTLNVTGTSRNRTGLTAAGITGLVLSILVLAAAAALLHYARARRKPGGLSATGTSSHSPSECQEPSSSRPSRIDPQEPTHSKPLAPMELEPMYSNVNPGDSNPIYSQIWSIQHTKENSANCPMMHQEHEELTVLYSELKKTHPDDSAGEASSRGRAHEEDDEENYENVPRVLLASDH

Binder | binding result [1] | binding result [2]
ET200-034 (scFv, screened as phage clone; entry is VL-linker-VH-His tag-HA tag) scFv: QSVLTQPPSVSGAPGQRVTISCTGSTSNIGAGYDVHWYQQLPGTAPKLLINNNRNRPSGVPDRFSGSKSGTSATLGITGLQTGDEADYYCGTWDGSLTGAVFGGGTKLTVLGSRGGGGSGGGGSGGGGSLEMAEVQLVQSGAEVKKPGSSVKVSCKASGGTFSSYAISWVRQAPGQGLEWMGGIIPIFGTANYAQKFQGRVTITADESTSTAYMELSSLRSEDTAVYYCARGSALDHYDRWGQGTLVTVSSTSGQAGQHHHHHHGAYPYDVPDYAS | no binding | no binding
ET200-026 (scFv, screened as phage clone; entry is VL-linker-VH-His tag-HA tag) scFv: NFMLTQPHSVSESPGKTVTISCTGSSGSIASNYVQWYQQRPGSAPTTVIYEDNQRPSGVPDRFSGSIDSSSNSASLTISGLKTEDEADYYCQSYDSSNWVFGGGTKLTVLGSRGGGGSGGGGSGGGGSLEMAEVQLVQSGAEVKKPGSSVKVSCKASGGTFSSYAISWVRQAPGQGLEWMGGIIPIFGTANYAQKFQGRVTITADESTSTAYMELSSLRSEDTAVYYCARNNHYYNDYWGQGTLVTVSSTSGQAGQHHHHHHGAYPYDVPDYAS | no binding | no binding
ET200-035 (scFv, screened as phage clone; entry is VL-linker-VH-His tag-HA tag) scFv: NFMLTQPHSVSESPGKTVTISCTRSSGSIASNYVQWYQQRPGSAPTTVIYEDNQRPSGVPDRFSGSIDSSSNSASLTISGLKTEDEADYYCQSYDSTNWVFGGGTKLTVLGSRGGGGSGGGGSGGGGSLEMAQVQLVQSGAEVKKPGSSVKVSCKASGGTFSSYAISWVRQAPGQGLEWMGGIIPIFGTANYAQKFQGRVTITADESTSTAYMELSSLRSEDTAVYYCARYNYYFNDYWGQGTLVTVSSTSGQAGQHHHHHHGAYPYDVPDYAS | no binding | no binding
ET200-040 (scFv, screened as phage clone; entry is VL-linker-VH-His tag-HA tag) scFv: QSVLTQPPSVSGAPGQRVTISCTGSSSNIGAGYDVHWYQQLPGTAPKLLIYGNSNRPSGVPDRFSGSKSGTSASLAITGLQAEDEADYYCQSYDSSLSGYVFGTGTKVTVLGSRGGGGSGGGGSGGGGSLEMAQVQLVQSGAEVKKPGASVKVSCKVSGYTLTELSMHWVRQAPGKGLEWMGGFDPEDGETIYAQKFQGRVTMTEDTSTDTAYMELSSLRSEDTAVYYCARYSGVYYDWGQGTLVTVSSTSGQAGQHHHHHHGAYPYDVPDYAS | no binding | no binding
ET200-030 (scFv, screened as phage clone; entry is VL-linker-VH-His tag-HA tag) scFv: QSVVTQPPSVSGAPGQRVTISCTGSSSNIGAGYDVNWYQQFPGTAPKLLIYGNSNRPSGVPDRFSGSKSGTSASLAITGLQAEDEADYYCQSYDSSLSGSYVFGTGTKVTVLGSRGGGGSGGGGSGGGGSLEMAQMQLVQSGAEVKKPGASVKVSCKASGYTLTELSMHWVRQAPGKGLEWMGGFDPEDGETIYAQKFQGRVTMTEDTSTDTAYMELSSLRSEDTAVYYCARMSSMYYDWGQGTLVTVSSTSGQAGQHHHHHHGAYPYDVPDYAS | no binding | no binding
ET200-002 (scFv, screened as phage clone; entry is VL-linker-VH-His tag-HA tag) scFv: NFMLTQPHSVSESPGKTVTISCTRSSGSIASNYVQWYQQRPGSAPTTVIYEDNQRPSGVPDRFSGSIDSSSNSASLTISGLKTEDEADYYCQSYDSSNSVVFGGGTKLTVLGSRGGGGSGGGGSGGGGSLEMAQVQLVQSGTEVKKPGASVRVACKASGYPFNKYDINWVRQAPGQGLEWMGGIIPIFRTTNYAQKFQGRVTITADESTSTAYMELSSLRSEDTAVYYCAREWFYWDIWGQGTLVTVSSTSGQAGQHHHHHHGAYPYDVPDYAS | no binding | no binding
ET200-029 (scFv, screened as phage clone; entry is VL-linker-VH-His tag-HA tag) scFv: QAVLTQPPSVSVAPGKTARVTCGGNNIGSESVHWYQQKPGQAPVLVIYYDTDRPSGIPERFSGSHSGTTATLTISRVEAGDEADYYCQVWDSSRDHVVFGGGTKLTVLGSRGGGGSGGGGSGGGGSLEMAQVQLVQSGGGVVQPGRSLRLSCAASGFTFSSYAMHWVRQAPGKGLEWVAVISYDGSNKYYADSVKGLFTISRDNSKNTLYLQMNSLRAEDTAVYYCARSYFTSGFYDYWGQGTLVTVSSTSGQAGQHHHHHHGAYPYDVPDYAS | no binding | no binding
ET200-038 (scFv, screened as phage clone; entry is VL-linker-VH-His tag-HA tag) scFv: QSVLTQPPSVSGAPGQRVTISCTGSSSNIGAGFDVHWYQLLPGTAPKLLIYANSNRPSGVPDRFSGSKSGTSASLAITGLLAEDEADYYCQSYDSSLSGVVFGGGTKLTVLGSRGGGGSGGGGSGGGGSLEMAQVQLVQSGAEVKKPGSSVKVSCKASGGTFSSYAISWVRQAPGQGLEWMGGIIPIFGTANYAQKFQGRVTITADESTSTAYMELSSLRSEDTAVYYCARGASFDRHDNWGQGTLVTVSSTSGQAGQHHHHHHGAYPYDVPDYAS | no binding | no binding
ET200-041 (scFv, screened as phage clone; entry is VL-linker-VH-His tag-HA tag) scFv: NFMLTQPHSVSGSPGKTVTISCTGSSGSIADNFVQWYQQRPGGVPTTVIFNDDERPSGVPDRFSGSIDTSSNSASLTISGLKTEDEADYYCQSYDNNNRGVFGGGTKLTVLGSRGGGGSGGGGSGGGGSLEMAQVQLVQSGAEVKKPGSSVKVSCKASGGTFSSYAISWVRQAPGQGLEWMGWMNPNSGNTGYAQKFQGRVTMTRNTSISTAYMELSNLRSEDTAVYYCARYYSYGYDWGQGTLVTVSSTSGQAGQHHHHHHGAYPYDVPDYAS | no binding | no binding
ET200-031 (scFv, screened as phage clone; entry is VL-linker-VH-His tag-HA tag; also called ET200-31) scFv: SYVLTQPPSVSVAPGKTARITCGGNNIGSKSVHWYQQKPGQAPVLVIYYDSDRPSGIPERFSGSNSGNTATLTISRVEAGDEADYYCQVWDSSSDYVFGTGTKVTVLGSRGGGGSGGGGSGGGGSLEMAEVQLVETGGGLVKPGGSLRLSCAASGFTVSDYYMSWIRQAPGKGLEWISYISGSGNSIYYADSVKGRFTISRDNAKNSLDLQMTSLRAEDTAVYYCARSTKFDYWGQGTLVTVSSTSGQAGQHHHHHHGAYPYDVPDYAS | no binding | no binding
ET200-027 (scFv, screened as phage clone; entry is VL-linker-VH-His tag-HA tag) scFv: QSVLTQPPSVSGAPGQGVTIPCTGSSSNIGAGYDVHWYQQLPGTAPKLLIYGNNNRPSGVPDRFSGSRSGSSASLAITGLQAEDEADYYCQSYDSSLSDVVFGGGTKVTVLGSRGGGGSGGGGSGGGGSLEMAEVQLVQSGAEVKKPGATVKISCKVSGYTFTDYYMHWVQQAPGKGLEWMGLVDPEDGETIYAEKFQGRVTITADTSTDTAYMELSSLRSEDTAVYYCARYWSYSFDYLYMPEGNDWWGQGTLVTVSSTSGQAGQHHHHHHGAYPYDVPDYAS | no binding | no binding
ET200-028 (scFv, screened as phage clone; entry is VL-linker-VH-His tag-HA tag) scFv: QSVLTQPPAASGTPGQRVTISCSGGVSNIGSGALNWYQQLPGTAPKLLIYSYNQRPSGVSDRFSGSRSATSASLAISGLQSEDEADYYCATWDDSVNGWVFGGGTKLTVLGSRGGGGSGGGGSGGGGSLEMAQVQLVQSGAEVKKPGDSVKVSCKPSGYNFLNYGINWVRQAPGQGLEWMGWISTYTGNTNYAQKLQGRVTFTTDTSTSTAYMEMRSLRSDDTAVYYCARDLYYYEGVDYWGQGTLVTVSSTSGQAGQHHHHHHGAYPYDVPDYAS | no binding | no binding
ET200-032 (scFv, screened as phage clone; entry is VL-linker-VH-His tag-HA tag) scFv: LPVLTQPPSASGTPGQRVTISCSGSSSNVGSYTVNWYRQLPGTAPTLLIYNNNQRPSGVPDRFSDSKSGTSASLTISGLQPEDEADYYCAAWDDRLGGYVFGTGTKVTVLGSRGGGGSGGGGSGGGGSLEMAEVQLVQSGAEVKKPGESLKISCKGSGYSFTNYWIGWVRQMPGKGLEWMGIIYPGDSDTRYSPSFQGQVTISADKSISTAYLQWSSLKASDTAMYYCARSTGSSHMSDEWGQGTLVTVSSTSGQAGQHHHHHHGAYPYDVPDYAS | no binding | no binding
ET200-033 (scFv, screened as phage clone; entry is VL-linker-VH-His tag-HA tag) scFv: NFMLTQPHSVSESPGKTVTISCTGSSGSIASNYVQWYQQRPGSAPTTVIYEDNQRPSGVPDRFSGSIDSSSNSASLTISGLKTEDEADYYCQSYDSSNHWVFGGGTKLTVLGSRGGGGSGGGGSGGGGSLEMAQVQLQQWGAGLLKPSETLSLTCAVYGGSFSGYYWSWIRQPPGKGLEWIGEITHSGRSNYNPSLKSRVTISVDTSKNQFSLKLSSVTAADTAVYYCARSSIMSDYWGQGTLVTVSSTSGQAGQHHHHHHGAYPYDVPDYAS | no binding | no binding
